This is an account of results in the supplement of paper PMC12764529.

Data set [1] can be described thus: folding stability dG unfold from trypsin proteolysis; higher = more stable. In outline:
(§1)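 Unfolding free energy was derived, per protease or combined, by relating Bayesian-fitted K50 values from sequencing counts to a sequence-predicted unfolded-state K50 and a shared folded-state K50. The underlying digests exposed cysteine-free mini-proteins under 80 residues, in a PA-tagged cDNA display construct, to trypsin and chymotrypsin at 11 threefold-diluted concentrations and to a no-protease condition. A filter kept only designs with AlphaFold2 dimer inter-PAE above 15.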

A short description of data set [2]: folding stability dG unfold from chymotrypsin proteolysis; higher = more stable. In outline: as §1
Data set [3] in a line: folding stability dG unfold (combined trypsin and chymotrypsin); higher = more stable. The essentials: as §1

± gives the half width of the 95% confidence interval.

With “SAGGIKLPPWFKKLADILQEEGYKIRIEPVNGYWVIRVDGKVYPSPEDMEDNRDDPGVDRVIVIPFPSAGGS [r16_275_TrROS]”, the “folding stability dG unfold” value was found to be 2.78 ± 0.14 kcal/mol in data set [1], 3.45 ± 0.12 kcal/mol in data set [2] and 3.26 ± 0.15 kcal/mol in data set [3].

Turning to “SAGGITIEWERNPDGYPNIKIQIRAPNGKKVAKLPIQFDPNDGGMTKLDLKKLLKEINLPPNVEVEFISAGG [r13_479_TrROS]”, the “folding stability dG unfold” value amounted to 1.45 ± 0.05 kcal/mol in data set [1], 1.22 ± 0.13 kcal/mol in data set [2] and 1.34 ± 0.13 kcal/mol in data set [3].

With “SAGGITVEVEYERTEGGYYRVTVTLRDPDGNPIEIEYPMPPGDPGMTQDEMKDKAVEWALKIAQELNSAGGS [r8_123_TrROS]”, the “folding stability dG unfold” value turned out to be 3.94 ± 0.12 kcal/mol in data set [1], 3.971 ± 0.031 kcal/mol in data set [2] and 3.96 ± 0.088 kcal/mol in data set [3].

With “SAGGIVAADVSPDGTVYPISPEAVRALVDAIRDRYGFDVKVTITEARYGDRWVTVIPIELTGLSPEEASAGG [r13_790_TrMRF]”, the “folding stability dG unfold” value worked out at 1.31 ± 0.04 kcal/mol in data set [1], 1.54 ± 0.02 kcal/mol in data set [2] and 1.5 ± 0.08 kcal/mol in data set [3].

As for “SAGGIWIKVPDGGWVRIQIEHPGNGRPREETIPGGDIKDLIKSLSSSPDFPNYKVKIEVWDGGKPKPISAGG [r13_914_TrROS]”, the entries for the “folding stability dG unfold” value in data set [1], in data set [2] and in data set [3] were 0.923 ± 0.03 kcal/mol, 1.71 ± 0.058 kcal/mol and 1.46 ± 0.14 kcal/mol, respectively.

“SAGGIYRVEIEIPGGNTIEFMIPGATEEMAKEIANELAQHFNPGDIKIEVYPIPPVKVDPEDGKWKWSAGGS [r8_167_TrROS]”: the “folding stability dG unfold” value in data set [1] was determined as 0.579 ± 0.039 kcal/mol; in data set [2], 1.41 ± 0.1 kcal/mol; in data set [3] it was 1.13 ± 0.095 kcal/mol.

Take “SAGGKAKIVEIKYNEETGTVTIKIKNEDGEEYEISIKLPPGAKIEIDEDGNITIKDIPAEQIEVRKVSAGGS [r16_515_TrROS_Hall]”: the entries for the “folding stability dG unfold” value in data set [1], in data set [2] and in data set [3] were 0.895 ± 0.03 kcal/mol, 1.68 ± 0.056 kcal/mol and 1.46 ± 0.12 kcal/mol, respectively.

Turning to “SAGGKDIKVTVEKVGDELYILVEASKEEVEALLKAGKKEITIEINGKKVKVKAVKLPDGTVLFRVRLESAGG [r13_171_TrROS_Hall]”, the “folding stability dG unfold” value is 3.28 ± 0.064 kcal/mol in data set [1], 4.23 ± 0.052 kcal/mol in data set [2] and 3.96 ± 0.065 kcal/mol in data set [3].

Consider “SAGGKEEKVVEIEIKKEKLKKSKDGKVYSAEEIAKKLKKELPEENVEVEIVSYDKEKGVVKIKIKVKSAGGS [r16_284_TrROS_Hall]”, for which the “folding stability dG unfold” value in data set [1] was 1.51 ± 0.12 kcal/mol; in data set [2], 1.74 ± 0.18 kcal/mol; in data set [3], 1.7 ± 0.36 kcal/mol.

Take “SAGGKEFIEKLGNNATIEIDTPNGGKVKINLKIEKVKPGKYVIKGEVTVYNPNTNKPVKFPYTLTIESAGGS [r8_473_TrMRF]”: the “folding stability dG unfold” value in data set [1] was 2.39 ± 0.2 kcal/mol; in data set [2], 3.75 ± 0.076 kcal/mol; in data set [3], 3.13 ± 0.18 kcal/mol.

For the sequence “SAGGKEIYKVNKKDFKKILDYLKKKKNAKITIIIKNKPIEIPIKDLEENYKKIKGKPNEPFYLEIEYSAGGS [r16_377_TrMRF]”, the “folding stability dG unfold” value in data set [1] came to 1.75 ± 0.087 kcal/mol; in data set [2] it was 2.28 ± 0.034 kcal/mol; in data set [3], 2.14 ± 0.077 kcal/mol.

Turning to “SAGGKEKIILIPAKDKEKVLELLKALADEGKTVRIINLKTGKVEEVTVDELLALAEKTNEPILIEVESAGGS [r16_263_TrROS_Hall]”, the entries for the “folding stability dG unfold” value in data set [1], in data set [2] and in data set [3] were 3.69 ± 0.18 kcal/mol, 2.98 ± 0.11 kcal/mol and 3.34 ± 0.21 kcal/mol, respectively.

Turning to “SAGGKEKYKVIEIKVKPEDVTAEELQAELEKKGYEIYVDGKKIKPGESVEDLLAKNPNATLTIVVKESAGGS [r8_38_TrROS_Hall]”, the “folding stability dG unfold” value came to 0.925 ± 0.17 kcal/mol in data set [1], 1.94 ± 0.11 kcal/mol in data set [2] and 1.71 ± 0.2 kcal/mol in data set [3].

For the sequence “SAGGKEVKIKIETKTLPNGVKVVKMTVELPDGKTVEMVMVENKKTGKMVMFEVKLDKNGKIVEIKAFPSAGG [r13_323_TrROS_Hall]”, the results for the “folding stability dG unfold” value in data set [1], in data set [2] and in data set [3] were 2.66 ± 0.16 kcal/mol, 3.43 ± 0.16 kcal/mol and 3.33 ± 0.41 kcal/mol, respectively.

Turning to “SAGGKEVKITIEYDEETKEVRVTIEKDGKEITVTMTAEELKKLLEELEKLPPVVVKDKDGKEKVVLLSAGGS [r8_332_TrROS_Hall]”, the “folding stability dG unfold” value in data set [1] is 1.14 ± 0.037 kcal/mol; in data set [2] it was -0.472 ± 0.26 kcal/mol; in data set [3], 0.696 ± 0.13 kcal/mol.

With “SAGGKEVKVIRITMSRDQLRDLIEKLFGKPLSLEEILKKLPPGAKVEIRVEENENGEVTVEIVIVKKPSAGG [r13_869_TrROS_Hall]”, the “folding stability dG unfold” value turned out to be 3.2 ± 0.23 kcal/mol in data set [1], 4.14 ± 0.11 kcal/mol in data set [2] and 3.99 ± 0.26 kcal/mol in data set [3].

“SAGGKEVYKVEIEVRLVKVPPGATVTLEEENGELTLTVTAPPGEEVLVIRIKVEKVKLPKPEKKKKKKSAGG [r13_804_TrROS_Hall]”: the “folding stability dG unfold” value in data set [1] turned out to be 2.22 ± 0.27 kcal/mol; in data set [2], 3.45 ± 0.18 kcal/mol; in data set [3], 2.79 ± 0.45 kcal/mol.

For “SAGGKIEEILKKLNLKPGEKAKIKDIKIEVKTVTVTEKKYKNGKLVEEKEKTVTVVKIEIKIELEKPKSAGG [r13_482_TrROS_Hall]”, the “folding stability dG unfold” value in data set [1] was 2.6 ± 0.18 kcal/mol; in data set [2] it was 3.97 ± 0.18 kcal/mol; in data set [3], 3.22 ± 0.26 kcal/mol.

For “SAGGKIEELAKEIAQEHNIKSVDVQTTGGYPKVNVRFRNPKEGRMYRIKIHVPPDGNIKISIEPQELSAGGS [r16_433_TrROS]”, the “folding stability dG unfold” value worked out at 1.87 ± 0.034 kcal/mol in data set [1], 2.08 ± 0.13 kcal/mol in data set [2] and 1.92 ± 0.26 kcal/mol in data set [3].

Regarding “SAGGKIEIHPDTLVVRIEVENKDGSTEEITLELKGLTEEELEDLLKELAAQLPDPDVKVKIVEIRRLPSAGG [r13_29_TrROS_Hall]”, the “folding stability dG unfold” value stood at 2.63 ± 0.13 kcal/mol in data set [1], 2.49 ± 0.12 kcal/mol in data set [2] and 2.43 ± 0.13 kcal/mol in data set [3].

“SAGGKIIEAIKELLKEGKKLSKEEILKKLKEALRKKAEEEGKPIEEIEITSIHFDKETNEVHIEIKPSAGGS [r16_365_TrROS_Hall]”: the entries for the “folding stability dG unfold” value in data set [1], in data set [2] and in data set [3] were 2.48 ± 0.12 kcal/mol, 2.63 ± 0.1 kcal/mol and 2.57 ± 0.089 kcal/mol, respectively.

Turning to “SAGGKIKLSPEALKALEEAIKKGDKNKTIFIELPDGSRIEVLPDGRIKVINKNGEEYELSEIKKIYPSAGGS [r16_664_TrROS_Hall]”, the entries for the “folding stability dG unfold” value in data set [1], in data set [2] and in data set [3] were 2.99 ± 0.2 kcal/mol, 2.31 ± 0.12 kcal/mol and 2.58 ± 0.22 kcal/mol, respectively.

As for “SAGGKILVPLEVLKEIEEAGLVDEVVENPDGPASLTVTSSKPAKLFGKPVIGFVRRGPDGKPVVEIIPSAGG [r13_163_TrMRF]”, the “folding stability dG unfold” value in data set [1] was -0.215 ± 0.091 kcal/mol; in data set [2], 0.0505 ± 0.13 kcal/mol; in data set [3], 0.000122 ± 0.099 kcal/mol.

For the sequence “SAGGKIPISPEALKALDEALKNGDKGDTIPIQTPDGHYIVITPNGRMRFHNGNEREFPIGKIKAIIWSAGGS [r16_664_TrROS]”, the “folding stability dG unfold” value in data set [1] was -0.149 ± 0.14 kcal/mol; in data set [2] it was 0.241 ± 0.2 kcal/mol; in data set [3], 0.156 ± 0.12 kcal/mol.

With “SAGGKIRIDVQYNKNEGYITIRIRFNGNTREIPIPSPKQSPEDVREEAEEIAKYLQEEYNIKEVEIWSAGGS [r16_249_TrROS]”, the “folding stability dG unfold” value in data set [1] was 2 ± 0.068 kcal/mol; in data set [2], 2.34 ± 0.11 kcal/mol; in data set [3], 2.36 ± 0.16 kcal/mol.

Turning to “SAGGKITITVEYNKETNTVRIKITTEDGKEKELEINLENLTEEELKKLAEEIAKKLNPEKIKKVEIYPSAGG [r13_267_TrROS_Hall]”, the “folding stability dG unfold” value amounted to 1.69 ± 0.11 kcal/mol in data set [1], 2.69 ± 0.12 kcal/mol in data set [2] and 2.33 ± 0.13 kcal/mol in data set [3].
